From PMC11197462 (Structure (London, England : 1993), 2023)

Tests used:
Fab favezelimab(mut) = assay: SEC
[1] = target: human LAG3, four Ig-like extracellular domains (D1-D4; residues 1-449) (human, UniProt P18627); assay: SEC
Chain of human LAG3, four Ig-like extracellular domains (D1-D4; residues 1-449) (P18627 23-449): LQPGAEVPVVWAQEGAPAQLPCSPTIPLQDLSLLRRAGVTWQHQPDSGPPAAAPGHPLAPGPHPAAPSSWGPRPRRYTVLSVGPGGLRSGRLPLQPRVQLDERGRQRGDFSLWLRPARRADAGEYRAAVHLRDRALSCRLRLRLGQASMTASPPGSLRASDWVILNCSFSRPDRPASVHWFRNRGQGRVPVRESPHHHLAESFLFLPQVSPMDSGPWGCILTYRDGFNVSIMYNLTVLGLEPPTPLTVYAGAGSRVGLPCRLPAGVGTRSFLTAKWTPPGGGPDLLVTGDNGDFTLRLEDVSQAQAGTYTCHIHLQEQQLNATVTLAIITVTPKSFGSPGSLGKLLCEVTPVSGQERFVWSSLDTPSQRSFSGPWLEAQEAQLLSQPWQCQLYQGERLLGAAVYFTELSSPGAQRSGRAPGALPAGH

B1: Fab favezelimab(mut) (Fab, V domains shown)
VH: EVLLLQSGPELVKPGTSVKIPCKASGYTFTDYNVDWVKQRHGKGLEWIGDINPNNGGTIYSQKFKGKATLTVDKSSSTAFMELRSLTSEDTAVYFCARNYRWFGAMDHWGQGTSVTVSS
VL: DIVLTQSPASLAVSPGQRATISCKASQSLDYEGDSDMNWYQQKPGQPPRLLISGASNLESGIPARFSGSGSGTDFTVNIHPVEEEDAATYYCQQSTEDPRTFGGGTKLEIK
percent of the protein in the dimer peak (Fab favezelimab(mut)): 85% | stoichiometry N (Fab favezelimab(mut)): 2 | stoichiometry N [1]: 2
